Assay type in all cases: physicochemical
Data set [1] in a line: Dynamic light scattering of hemoglobin. The note with it: heated at 60° C. for 20 min without red laser light. The protocol: FIG. 4 represents the dynamic light scattering pattern of protein hemoglobin in the presence and absence of red laser light at 60° C. The hydrodynamic diameter of hemoglobin at 25° C. is 5.6 nm. When this protein solution was heated at 60° C. without red laser light for 20 min, the hydrodynamic diameter increases to 4801.0 nm. However, in the presence of red laser light the diameter increases to only 255.0 nm.

Data set [2] can be described thus: Thermal aggregation of hemoglobin (absorption/scattering at 360 nm). The note with it: 0.1 mg/ml, 60° C., 20 min, He-Ne laser 632.8 nm, 0.63 watts/cm^2. The text has this: (§1) In this Example, the effects of light energy on the aggregation of a labile biomolecule in aqueous solution were examined. The device included a heating element and a laser, as depicted in FIG. 2. The laser operated at 632.8 nm, in the red portion of the spectrum, with a power density of 0.63 watts/cm^2. The 180 degree scattering at 360 nm (in terms of OD at 360 nm) was taken to measure the extent of aggregation because it is well-known that this scattering is a measure of the propensity of a protein to form aggregate. Aggregation of proteins of the reference samples was taken as 100% and the aggregation of laser-treated proteins in the test samples was calculated relative to the 100% aggregation of the reference samples.
Thermal aggregation of hemoglobin. Hemoglobin was purchased from Sigma-Aldrich (St. Louis, Mo.) and a 0.5 mg/ml stock solution was prepared by mixing with 100 mM phosphate buffer solution of pH 7.2. The aggregation of a 0.1 mg/ml hemoglobin solution was observed by measuring the absorption of radiation of 360 nm wavelength with a time duration of 20 min in a Perkin Elmer spectrophotometer at 60° C. Test samples were irradiated with He—Ne laser having power density is 0.63 watts/cm^2 and operating at a wavelength 632.8 nm. A control sample was subjected to identical conditions expect laser irradiation was not performed. […]

A short description of data set [3]: Dithiothreitol induced aggregation of insulin (absorption at 360 nm). To be noted: 0.1 mg/ml, DTT 20 mM, 40° C., He-Ne laser 632.8 nm, 0.63 watts/cm^2.
Text: as §1
Dithiothreitol induced aggregation of insulin. Insulin was purchased from ICN and a stock solution of insulin (0.5 mg/ml) was prepared by mixing with 100 mM phosphate buffer of pH 7.2. Disulphide linkages of insulin (0.1 mg/ml) were reduced by dithiothreitol (DTT, 20 mM), which leads aggregation of insulin at 40° C. This aggregation of protein was measured by absorption at 360 nm after heat treatment at 40° C. in a Perkin Elmer spectrophotometer. Aggregation of insulin was measured in the presence and in the absence of laser light. Test samples were irradiated with a He—Ne laser having power density is 0.63 watts/cm^2 and operating at a wavelength 632.8 nm. […]

Data set [4] can be described thus: Thermal aggregation of citrate synthase (OD at 360 nm). The note with it: for change in aggregation upon laser exposure: FIG. 5.
Text: as §1
Thermal Aggregation of Citrate Synthase. Citrate synthase was purchased from Sigma-Aldrich and a 0.5 mg/ml stock solution was prepared by mixing with 100 mM phosphate buffer solution of pH 7.2. Citrate synthase was readily converted to its aggregated state from a native state at 45° C. The aggregation profile of the protein (0.1 mg/ml) was measured by measuring optical density (OD) at 360 nm in a Perkin Elmer spectrophotometer in 100 mM phosphate buffer of pH 7.2. Test samples were irradiated with a He—Ne laser having power density is 0.63 Watt/cm^2 and operating at a wavelength 632.8 nm. A control sample was subjected to identical conditions expect that laser irradiation was not performed. The results are shown in FIG. 3 and indicate that irradiation with laser light reduced the formation of protein aggregates by about 40% compared to an non-irradiated control sample.
A comparative study showing the effect of the power of the red laser on the aggregation of citrate synthase was conducted. Thermal aggregation of citrate synthase was determined by measuring absorption of radiation of 360 nm wavelength at 45° C. Aggregation of control samples (in absence of laser treatment) was considered as 100% aggregation while aggregation of the treated protein of the test samples was calculated relative to the 100% aggregation of the control samples. […] Thus, increasing the energy input to the test samples beyond that needed to increase the activation energy for unfolding the protein appears to generate heat energy that increases aggregation. As such, suitable methods for preventing protein aggregation use a low-power red laser.

hemoglobin came in with a hydrodynamic diameter in data set [1] of 4801.0 nm. Besides, in data set [2], the “reduction of formation of hemoglobin aggregates compared to non-irradiated control” value is on record as “about 25%”.
Regarding insulin, the “reduction of formation of insulin aggregates compared to non-irradiated control” value in data set [3] is reported as “about 10%”.

B1: citrate synthase (protein, UniProt P00889 28-464, looked up)
Citrate synthase, …: ASSTNLKDILADLIPKEQARIKTFRQQHGNTVVGQITVDMMYGGMRGMKGLVYETSVLDPDEGIRFRGYSIPECQKMLPKAKGGEEPLPEGLFWLLVTGQIPTEEQVSWLSKEWAKRAALPSHVVTMLDNFPTNLHPMSQLSAAITALNSESNFARAYAEGIHRTKYWELIYEDCMDLIAKLPCVAAKIYRNLYREGSSIGAIDSKLDWSHNFTNMLGYTDAQFTELMRLYLTIHSDHEGGNVSAHTSHLVGSALSDPYLSFAAAMNGLAGPLHGLANQEVLVWLTQLQKEVGKDVSDEKLRDYIWNTLNSGRVVPGYGHAVLRKTDPRYTCQREFALKHLPHDPMFKLVAQLYKIVPNVLLEQGKAKNPWPNVDAHSGVLLQYYGMTEMNYYTVLFGVSRALGVLAQLIWSRALGFPLERPKSMSTDGLIKLVDSK
notes: a beta sheet-rich enzyme which readily aggregates by thermal treatment at 45° C; purchased from Sigma-Aldrich
In the case of B1, the “reduction of formation of protein aggregates compared to non-irradiated control” value in data set [4] (0.1 mg/ml, 45° C., He-Ne laser 632.8 nm, 0.63 Watt/cm^2) is on record as “about 40%”. Also, the “aggregation relative to control samples (100%)” value in data set [4] (45° C., red laser 15 mW, 1.9 watts/cm^2) is “approximately 145%”; in data set [4] (45° C., red laser 632.8 nm, 5 mW, 0.63 watts/cm^2), 60%. Also, the “change in aggregation upon laser exposure” value in data set [4] (high power (15 mW) red laser) was “increase in aggregation”; in data set [4] (low power (5 mW) red laser), “decrease in the aggregation”.

For the origin of these results see patent publication US20110250670A1, “LIGHT ENERGY-INDUCED STABILITY OF BIOMATERIALS” (University of Calcutta, priority 2010, published 2011).
